{"source": "patent US8697369B2", "about": "“Method for screening a test substance for activating a receptor associated with FGF 21 activity” (National Institute of Advanced Industrial Science and …, priority 2007, dated 2014)", "key": {"[1]": {"system": "adipocytes differentiated from 3T3-L1 cells", "assay": "GLUT1 mRNA expression in 3T3-L1 cells differentiated into adipocytes", "assay_type": "cell-based", "settings": "various concentrations, 6 hours", "protocol": "It has been reported that FGF21 allows adipocytes to increasingly express glucose transporter 1 (GLUT1). In the present example, as cultured adipocytes, there were used 3T3-L1 cells that are fibroblasts having the ability to differentiate into adipocytes by controlling culture conditions. The cells were cultured in a culture solution of a Dulbecco's modified Eagle medium (DMEM) containing 10% fetal bovine serum (FBS), so as to prepare cells maintaining an undifferentiated property as fibroblasts. The prepared cells were cultured in a test system, and they were allowed to grow to a confluent state. The cells were then left for 2 days. Thereafter, the culture solution was exchanged with DMEM as a culture solution used for differentiation induction, which comprised 10% FBS, 0.25 μM dexamethasone, 0.5 mM methyl isobutyl xanthine, and 5 μg/ml insulin. The cells were cultured for 2 days. […] The term “cells having the properties of adipocytes” is used herein to mean cells, which conduct intracellular metabolism specific to adipocytes and have cytoplasm in which large quantities of fat droplets are accumulated.\nFGF21 were added in various types of concentrations to such different types of culture solutions, and the cells were further culture for 6 hours. Thereafter, RNA was extracted, and the copy number of GLUT1 was counted."}, "[2]": {"biological_target": "T1, FGFR1c-expressing BaF3 cells (Mus musculus, UniProt P16092)", "T1 construct": "the entire-length cDNA of mouse FGFR1c had been cloned; expressed in transfected cells; host or cells: BaF3 (mouse pro-B) cells", "T1 sequence (P16092 22-822)": "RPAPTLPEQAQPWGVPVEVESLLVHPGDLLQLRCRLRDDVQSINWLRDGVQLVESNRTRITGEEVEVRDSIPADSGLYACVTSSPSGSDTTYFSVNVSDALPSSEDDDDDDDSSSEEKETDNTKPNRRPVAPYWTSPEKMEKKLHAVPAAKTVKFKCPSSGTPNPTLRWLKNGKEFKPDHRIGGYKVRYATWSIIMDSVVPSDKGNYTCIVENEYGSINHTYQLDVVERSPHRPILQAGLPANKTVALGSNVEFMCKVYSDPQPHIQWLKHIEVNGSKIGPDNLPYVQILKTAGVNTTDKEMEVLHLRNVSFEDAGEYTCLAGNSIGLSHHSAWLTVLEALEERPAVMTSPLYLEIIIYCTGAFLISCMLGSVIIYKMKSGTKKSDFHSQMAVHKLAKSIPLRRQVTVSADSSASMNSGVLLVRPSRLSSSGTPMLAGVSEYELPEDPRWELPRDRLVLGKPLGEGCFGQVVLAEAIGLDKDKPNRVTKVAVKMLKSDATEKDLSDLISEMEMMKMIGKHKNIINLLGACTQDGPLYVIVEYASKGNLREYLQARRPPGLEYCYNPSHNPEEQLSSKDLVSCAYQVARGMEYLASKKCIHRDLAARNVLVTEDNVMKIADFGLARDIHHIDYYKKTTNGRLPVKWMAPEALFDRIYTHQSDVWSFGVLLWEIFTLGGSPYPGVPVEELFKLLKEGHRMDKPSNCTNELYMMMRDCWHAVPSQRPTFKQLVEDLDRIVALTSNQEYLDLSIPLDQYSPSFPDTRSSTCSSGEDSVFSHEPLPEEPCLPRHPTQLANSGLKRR", "assay": "DNA synthesis (thymidine incorporation) in BaF3 cells expressing only FGFR1c", "assay_type": "cell-based", "settings": "BaF3 cells expressing FGFR1c but not betaKlotho", "protocol": "A commonly used measurement method is a cell growth stimulating activity measurement method described in Ornitz, D. M., Xu, J., Colvin, J. S., McEwen, D. G., MacArthur, C. A., Coulier, F., Gao, G. and Goldfarb, M. (1996) Receptor specificity of the fibroblast growth factor family. J Biol Chem, 271, 15292-15297. The summary thereof is as follows. FGF used as a measurement target is added to a culture solution containing a cultured cell having an FGF receptor on the surface thereof, and the obtained mixture is cultured for a certain period of time. Thereafter, a labeled thymidine is added to the culture solution, followed by further culture for a certain period of time. By measuring the amount of the labeled thymidine incorporated into polymeric DNA during the culture, the degree of FGF to activate DNA synthesis is evaluated. (In the present invention as well, this method was adopted when the activity of FGF21 was measured in Examples 4, 5, 6, 8, 9, and 10.) […]\nImmediately after inoculation, BaF3 cells that had expressed each clone and only FGFR1c were stimulated by addition of FGF21 (open bar) or PBS (filled bar) used as a control in the presence of heparin, and they were then cultured for 42 hours. […] Thereafter, the amount of thymidine incorporated into the cells was measured, so as to evaluate DNA synthesis. […]"}}, "data": [{"molecule": "FGF21: fibroblast growth factor 21; mouse-derived protein used in Examples 1-7 and 10-13 (protein) AYPIPDSSPLLQFGGQVRQRYLYTDDDQDTEAHLEIREDGTVVGAAHRSPESLLELKALKPGVIQILGVKASRFLCQQPDGALYGSPHFDPEACSFRELLLEDGYNVYQSEAHGLPLRLPQKDSPNQDATSWGPVRFLPMPGLLHEPQDQAGFLPPEPPDVGSSDPLSMVEPLQGRSPSYAS", "values": [{"measurement": "expression level of GLUT1 mRNA", "setting": "[1]", "value": "increased"}, {"measurement": "DNA synthesis (thymidine incorporated into the cells)", "setting": "[2]", "value": "did not react with FGF21"}]}]}
